In publication PMC2867956, “Interdomain Interactions Control Ca^2+-Dependent Potentiation in the Cation Channel TRPV4” (PLoS ONE, 2010):

Tested on: CFP-fused N1
Assay: FRET acceptor bleaching, N1/C1 interaction in HEK293 cells
Format: cell-based, human
Conditions: YFP-fused C1 and CFP-fused N1 coexpressed in HEK293 cells
From the text: (See Methods S1 for details).

B1: C1: full-length TRPV4 C terminus, residues 721-871 (protein, UniProt Q9HBA0 721-871, looked up, fragment)
chain: TVGQVSKESKHIWKLQWATTILDIERSFPVFLRKAFRSGEMVTVGKSSDGTPDRRWCFRVDEVNWSHWNQNLGIINEDPGKNETYQYYGFSHTVGRLRRDRWSSVVPRVVELNKNSNPDEVVVPLDSMGNPRCDGHQQGYPRKWRTDDAPL
- FRET interaction of N1 and C1: interact
